Values joined by “and” are separate entries in the source; they are usually repeats but may differ in a detail not shown here. Identical values can stand only once.
Tests used:
[1] = target: the molecule itself; experiment: native MS; 5 μM Ire1-LD sprayed from 100 mM ammonium acetate at pH 6.8; no substrate peptide
[2] = target: the molecule itself; experiment: MST; 0.5 μM FITC-labelled Ire1-LD titrated with unlabelled Ire1-LD; HMK buffer with 1 mM TCEP or 5 mM DTT; apparent dimerization constant (dimer to monomers); no substrate peptide
turbidity (OD at 400 nm) = target: the molecule itself; experiment: turbidity (OD at 400 nm)
co-sedimentation = target: the molecule itself; experiment: co-sedimentation

B1: human Ire1α luminal domain (aa 24–449), wild type (domain or fragment, UniProt O75460 24-449, looked up)
chain: STVTLPETLLFVSTLDGSLHAVSKRTGSIKWTLKEDPVLQVPTHVEEPAFLPDPNDGSLYTLGSKNNEGLTKLPFTIPELVQASPCRSSDGILYMGKKQDIWYVIDLLTGEKQQTLSSAFADSLCPSTSLLYLGRTEYTITMYDTKTRELRWNATYFDYAASLPEDDVDYKMSHFVSNGDGLVVTVDSESGDVLWIQNYASPVVAFYVWQREGLRKVMHINVAVETLRYLTFMSGEVGRITKWKYPFPKETEAKSKLTPTLYVGKYSTSLYASPSMVHEGVAVVPRGSTLPLLEGPQTDGVTIGDKGECVITPSTDVKFDPGLKSKNKLNYLRNYWLLIGHHETPLSASTKMLERFPNNLPKHRENVIPADSEKKSFEEVINLVDQTSENAPTTVSRDVEEKPAHAPARPEAPVDSMLKDMATIIL
modifications: FITC-labelled for the copy held at fixed concentration in MST and for fluorescence polarisation; unlabelled elsewhere
notes: human Ire1α luminal domain (Ire1-LD), aa 24-449 of UniProt O75460; Cloned into the pET His6 TEV LIC vector (Addgene 29653); 15N- or 13C,15N-labelled for NMR; also called Ire1-LD; WT Ire1-LD; source: E. coli BL21 (DE3), purified (HisTrap HP nickel column, dialysis)
[1]
  stoichiometry N: 2 and 4
[2]
  Kd: 500 ± 170 nM

B2: human Ire1α luminal domain (aa 24–449), 359WLLI362 to GSSG variant (domain or fragment, UniProt O75460 24-449, looked up)
chain: STVTLPETLLFVSTLDGSLHAVSKRTGSIKWTLKEDPVLQVPTHVEEPAFLPDPNDGSLYTLGSKNNEGLTKLPFTIPELVQASPCRSSDGILYMGKKQDIWYVIDLLTGEKQQTLSSAFADSLCPSTSLLYLGRTEYTITMYDTKTRELRWNATYFDYAASLPEDDVDYKMSHFVSNGDGLVVTVDSESGDVLWIQNYASPVVAFYVWQREGLRKVMHINVAVETLRYLTFMSGEVGRITKWKYPFPKETEAKSKLTPTLYVGKYSTSLYASPSMVHEGVAVVPRGSTLPLLEGPQTDGVTIGDKGECVITPSTDVKFDPGLKSKNKLNYLRNYGSSGGHHETPLSASTKMLERFPNNLPKHRENVIPADSEKKSFEEVINLVDQTSENAPTTVSRDVEEKPAHAPARPEAPVDSMLKDMATIIL
notes: human Ire1α luminal domain (Ire1-LD), aa 24-449 of UniProt O75460, with WLLI 359-362 replaced by GSSG at the oligomerisation interface; Methods and one legend print 358WLLI362; also called 358WLLI362 to GSSG; source: E. coli BL21 (DE3), expressed overnight at 20°C, purified (HisTrap HP nickel column)
Turbidity (OD at 400 nm)
  binding result: binds

B3: human Ire1α luminal domain (aa 24–449), 315LL316 to DA variant (domain or fragment, UniProt O75460 24-449, looked up)
chain: STVTLPETLLFVSTLDGSLHAVSKRTGSIKWTLKEDPVLQVPTHVEEPAFLPDPNDGSLYTLGSKNNEGLTKLPFTIPELVQASPCRSSDGILYMGKKQDIWYVIDLLTGEKQQTLSSAFADSLCPSTSLLYLGRTEYTITMYDTKTRELRWNATYFDYAASLPEDDVDYKMSHFVSNGDGLVVTVDSESGDVLWIQNYASPVVAFYVWQREGLRKVMHINVAVETLRYLTFMSGEVGRITKWKYPFPKETEAKSKLTPTLYVGKYSTSLYASPSMVHEGVAVVPRGSTLPDAEGPQTDGVTIGDKGECVITPSTDVKFDPGLKSKNKLNYLRNYWLLIGHHETPLSASTKMLERFPNNLPKHRENVIPADSEKKSFEEVINLVDQTSENAPTTVSRDVEEKPAHAPARPEAPVDSMLKDMATIIL
notes: human Ire1α luminal domain (Ire1-LD), aa 24-449 of UniProt O75460, with LL 315-316 replaced by DA; source: E. coli BL21 (DE3), purified (HisTrap HP nickel column)
co-sedimentation
  binding result: binds
